We go through eleven molecules from US20210238289A1 (Biogen, published 2021).

Where a chain is given by its changes, count along the chain named. Names and notes keep the numbering of the source.

Usually IC50 stands for the concentration at which inhibition is half-maximal. The EC50 is the concentration needed to bring the measured effect to its halfway point.

For assay [1], the target named is T1, CD16 (FcγRIIIa V158) (UniProt P08637 17-208).
T1 construct: V158 allotype as printed
Briefly: solution competition SPR (Biacore). As for the experimental part: (§1) Binding to Fcγ receptors was analyzed using solution affinity surface plasmon resonance (ref Day E S, Cachero T G, Qian F, Sun Y, Wen D, Pelletier M, Hsu Y M, Whitty A. Selectivity of BAFF/BLyS and APRIL for binding to the TNF family receptors BAFFR/BR3 and BCMA. Biochemistry. 2005 Feb. 15; 44(6):1919-31.) The method utilizes conditions of so-called “mass-transport-limited” binding, in which the initial rate of ligand binding (protein binding to the senor chip) is proportional to the concentration of ligand in solution (ref BIApplications Handbook (1994) Chapter 6: Concentration measurement, pp 6-1-6-10, Pharmacia Biosensor AB). Under these conditions, binding of the soluble analyte (protein flowing over chip surface) to the immobilized protein on the chip is fast compared to the diffusion of the analyte into the dextran matrix on the chip surface. Therefore, the diffusion properties of the analyte and the concentration of analyte in solution flowing over the chip surface determine the rate at which analyte binds to the chip. In this experiment, the concentration of free Fc receptor in solution is determined by the initial rate of binding to a CM5 Biacore chip containing an immobilized IgG1 MAb. Into these Fc receptor solutions were titrated the stability engineered constructs (see Table 10.1 below). […] Initial binding rates were obtained from raw sensorgram data (FIG. 14). […] The results are shown in Table 10.1 and reported as the average of two titrations.
A general note: In SPR one partner is held on a chip, and binding of the other changes the refractive index at the surface.

Assay [2] addresses T2, CD64 (FcγRI) (UniProt P12314 16-288, limits assumed). Kind of assay: solution competition SPR (Biacore); construct titrated into receptor, free receptor read on immobilized IgG1 MAb. How it is done: as §1
Assay [3] addresses T1, CD16 (FcγRIIIa V158). Kind of assay: solution competition SPR (Biacore); text value differing from the table (100.2). As for the experimental part: Binding to Fcγ receptors was analyzed using solution affinity surface plasmon resonance (ref Day E S, Cachero T G, Qian F, Sun Y, Wen D, Pelletier M, Hsu Y M, Whitty A. Selectivity of BAFF/BLyS and APRIL for binding to the TNF family receptors BAFFR/BR3 and BCMA. Biochemistry. 2005 Feb. 15; 44(6):1919-31.) The method utilizes conditions of so-called “mass-transport-limited” binding, in which the initial rate of ligand binding (protein binding to the senor chip) is proportional to the concentration of ligand in solution (ref BIApplications Handbook (1994) Chapter 6: Concentration measurement, pp 6-1-6-10, Pharmacia Biosensor AB). Under these conditions, binding of the soluble analyte (protein flowing over chip surface) to the immobilized protein on the chip is fast compared to the diffusion of the analyte into the dextran matrix on the chip surface. Therefore, the diffusion properties of the analyte and the concentration of analyte in solution flowing over the chip surface determine the rate at which analyte binds to the chip. In this experiment, the concentration of free Fc receptor in solution is determined by the initial rate of binding to a CM5 Biacore chip containing an immobilized IgG1 MAb. Into these Fc receptor solutions were titrated the stability engineered constructs (see Table 10.1 below). […] Initial binding rates were obtained from raw sensorgram data (FIG. 14). […]

Assay [4] has as its target T1, CD16 (FcγRIIIa V158). Kind of assay: solution competition SPR (Biacore); construct titrated into receptor, free receptor read on immobilized IgG1 MAb. As for the experimental part:
as §1

Assay [5] addresses T3, human C1q (human, UniProt P02745 23-245; P02746 28-253; P02747 29-245).
T3 construct: Bought protein; also called complement factor C1q; Sigma human C1q (C0660)
Kind of assay: C1q ELISA. How it is done: The C1q binding assay was be performed by coating 96 well Maxisorb ELISA plates (Nalge-Nunc Rochester, N.Y., USA) with 50 μl recombinant soluble human CD40 ligand at 10 ug/ml overnight at 4° C. in PBS. The wells were aspirated and washed three times with wash buffer (PBS, 0.05% Tween 20) and blocked for 1 hour with 200 µl/well of block/diluent buffer (0.1 M Na2HP04, pH 7.0, 1 M NaCl, 0.05% Tween 20, 1% gelatin). The antibodies were diluted in block/diluent buffer with 3-fold dilutions and incubated for 2 hours at room temperature.
After aspirating and washing as above, 50 pll/well of sheep anti C1q (Serotec AHP033), diluted 3, 560-fold in block/diluent buffer, were added. After incubation for 1 h at room temperature, the wells were aspirated and washed as above. 50 pll/well of donkey anti-sheep IgG HRP conjugate (Jackson ImmunoResearch 713-035-147) diluted to 1:10,000 in block/diluent were then added, and the wells incubated for 1 h at room temperature.
After aspirating and washing as above, 100 all TMB substrate (420 plM TMB, 0.004% H2O2 in 0.1 M sodium acetate/citric acid buffer, pH 4.9) were added and incubated for 2 min before the reaction was stopped with 100 ul 2 N sulfuric acid. The absorbance was read at 450 nm with a Softmax PRO instrument, and Softmax software was used to determine the relative binding affinity (C value) with a 4-parameter fit.

In assay [6] the target is T2, CD64 (FcγRI). Kind of assay: solution competition SPR (Biacore). How it is done:
as §1

Assay [7] has as its target T1, CD16 (FcγRIIIa V158). Briefly: solution competition SPR (Biacore). The source holds these as a separate data set.
Assay [8] concerns the target T4, α4β1 (VLA-4) as used in the competition ELISAs (UniProt P13612 34-970; P05556 21-728). Briefly: competition ELISA; mixture of mouse HP1/2 with test mAb binding to integrin. Background: ELISA stands for enzyme-linked immunosorbent assay.
Assay [9] addresses T4, α4β1 (VLA-4) as used in the competition …. Kind of assay: competition ELISA; integrin preincubated with test mAb, then murine HP1/2 as competing reagent.
In assay [10] the target is T5, human alpha-4 integrin (human, UniProt P13612 34-970, limits assumed).
T5 construct: also called the human receptor
Kind of assay: in vitro binding affinity comparison; method not described.

Assay [11] addresses T6, cynomolgus monkey alpha-4 integrin (cynomolgus monkey, UniProt A0A2K5U6S2 34-970).
T6 construct: also called cynomolgus alpha-4 integrin
The assay is described as above.

For assay [12], the target named is T7, VLA receptors (alpha-4 integrin) of cynomolgus monkeys in vivo (cynomolgus monkey, UniProt A0A2K5U6S2 34-1032).
T7 construct: whole, on cells; Receptor occupancy measured in dosed animals; also called free VLA receptors
Briefly: model-estimated (direct Emax PKPD model) EC50 for the formation of drug-bound VLA in cynomolgus monkeys. The source says: HP1/2 human PKs were projected through allometric scaling on monkey PK parameters (k10, k12, k21 and V1). See Singh, A. P et al. The AAPS Journal, 17(2), 389-399. […] The inherent monkey parameters were directly applied to human including Km, V max and the PD parameters (Eₘ, EC₅₀, E₀ and V). […] See Muralidharan, K. K. et al. Journal of Clinical Pharmacology, 57(8), 1017-1030. The data were integrated using an empirical scaling approach combining the EC₅₀ parameter values obtained in monkeys (m) and humans (h), after adjusting for potency (Kd) differences across species: […]

B1: CN578 (hu5c8 IgG1 T299K, aglycosylated) (antibody)
heavy: not shown
light: DIVLTQSPATLSVSPGERATISCRASQRVSSSTYSYMHWYQQKPGQPPKLLIKYASNLESGVPARFSGSGSGTDFTLTISSVEPEDFATYYCQHSWEIPPTFGGGTKLEIKRTVAAPSVFIFPPSDEQLKSGTASVVCLLNNFYPREAKVQWKVDNALQSGNSQESVTEQDSKDSTYSLSSTLTLSKADYEKHKVYACEVTHQGLSSPVTKSFNRGEC
modifications: N-terminal Q largely converted to pyroglutamic acid (mass spectrometry)
notes: Mass spectrometry assigns HC 1-447, which fits VH (118) + IgG1 CH1 (98) + Fc moiety (231); also called aglycosylated IgG1 A299K
For B1, the values for the IC50 in assay [1] and in [2] were 1320 µM and 1420 µM, respectively.

B2: IgG1 control antibody (hu5c8 IgG1, glycosylated) (antibody)
heavy: not shown
light: B1 light
notes: also called IgG1 wild type
In the case of B2, the values for the IC50 in assay [3], in assay [2] and in assay [4] were 105 µM, 9.64 µM and 100 µM, respectively.

B3: EC300 (hu5c8 IgG4.P S228P, T307P, glycosylated) (antibody)
heavy: not shown
light: B1 light
notes: copies: 2 + 2
Regarding B3, the 50% inhibitory concentration (IC50) was 11.2 µM in assay [2] and 564 µM in assay [4].

B4: EAG2287 (hu5c8 S228P/T299K, IgG4 CH2/IgG1 CH3 chimera, aglycosylated) (antibody)
heavy: QVQLVQSGAEVVKPGASVKLSCKASGYIFTSYYMYWVKQAPGQGLEWIGEINPSNGDTNFNEKFKSKATLTVDKSASTAYMELSSLRSEDTAVYYCTRSDGRNDMDSWGQGTLVTVSSASTKGPSVFPLAPCSRSTSESTAALGCLVKDYFPEPVTVSWNSGALTSGVHTFPAVLQSSGLYSLSSVVTVPSSSLGTKTYTCNVDHKPSNTKVDKRVESKYGPPCPPCPAPEFLGGPSVFLFPPKPKDTLMISRTPEVTCVVVDVSQEDPEVQFNWYVDGVEVHNAKTKPREEQFNSKYRVVSVLTVLHQDWLNGKEYKCKVSNKGLPSSIEKTISKAKGQPREPQVYTLPPSRDELTKNQVSLTCLVKGFYPSDIAVEWESNGQPENNYKTTPPVLDSDGSFFLYSKLTVDKSRWQQGNVFSCSVMHEALHNHYTQKSLSLSPG
light: B1 light
notes: also called pEAG2287; copies: 2 + 2
Turning to B4, the binding result in assay [5] and in [1] was “no binding” each time. In addition, in [6], the IC50 was determined as 4040 µM.

B5: EC326 (hu5c8 IgG4.P S228P, T307P, L309K, D399S, glycosylated) (antibody)
heavy: B4 heavy with K297T, T305P, L307K, R353Q, D354E, L356M, D397S, K407R, Q417E, P443L
light: B1 light
modifications: N-terminal Q largely converted to pyroglutamic acid; N-linked G0F/G1F/G2F glycans (mass spectrometry)
notes: copies: 2 + 2
With B5, the 50% inhibitory concentration (IC50) in assay [2] worked out at 7.56 µM; in [4] it was 380 µM.

B6: EAG2296 (hu5c8 S228P/T299A, IgG4 CH2/IgG1 CH3 chimera, aglycosylated) (antibody)
heavy: B4 heavy with K297A
light: B1 light
notes: also called pEAG2296; copies: 2 + 2
In the case of B6, the binding result in assay [5] is “no binding”. In assay [1], the IC50 was found to be 1320 µM.

B7: EAG2476 (YC406-Fc; agly IgG4-Fc T299K, T307P, L309K, D399S) (other)
Fc: ESKYGPPCPPCPAPEFLGGPSVFLFPPKPKDTLMISRTPEVTCVVVDVSQEDPEVQFNWYVDGVEVHNAKTKPREEQFNSKYRVVSVLPVKHQDWLNGKEYKCKVSNKGLPSSIEKTISKAKGQPREPQVYTLPPSQEEMTKNQVSLTCLVKGFYPSDIAVEWESNGQPENNYKTTPPVLSSDGSFFLYSRLTVDKSRWQEGNVFSCSVMHEALHNHYTQKSLSLSLG
modifications: Aglycosylated through T299K. The Fc is a homodimer; one chain is given.
B7 registered an IC50 in assay [7] of 1320 µM.

B8: H1L0 (antibody, V domains shown)
VH: EVQLVQSGAEVKKPGATVKISCKASGFNIKDTYMHWVQQAPGKGLEWMGRIDPASGDTKYDPKFQVRVTITADTSTDTAYMELSSLRSEDTAVYYCADGMWVSTGYALDFWGQGTLVTVSS
VL: DIVMTQSPDSLAVSLGERATINCKASQSVTNDVAWYQQKPGQPPKLLIYYASNRYTGVPDRFSGSGSGTDFTLTISSLQAEDVAVYYCQQDYSSPYTFGQGTKVEIK
notes: also called Design H1 / Design L0
For the molecule B8, the IC50 in [8] amounted to 0.00446 µM; in assay [9] it was 0.00187 µM.

B9: HP1/2 H1/L3 huIgG4P agly (N297Q, EU Numbering)/IgG1 chimera (antibody, V domains shown)
VH: B8 VH
VL: SIVMTQSPDSLAVSLGERATINCKASQSVTNDVAWYQQKPGQPPKLLIYYASNRYTGVPDRFSGSGYGTDFTFTISSLQAEDVATYFCQQDYSSPYTFGQGTKVEIKR
notes: also called BIIB107; HP1/2 G4P agly/G1
Take B9: in [10], the “fold higher affinity than natalizumab Fab fragment” value is above 19 fold and the “fold higher affinity than natalizumab intact” value is around 5 fold. Moreover, in assay [11], the “fold weaker affinity than to the human receptor” value was around 5 fold. The EC50 in [12] was 4.73 ng/mL.

B10: HP1/2 Fab fragment (Fab, V domains shown)
VH: B8 VH
VL: B9 VL
For B10, in assay [10], the “fold higher affinity than natalizumab Fab fragment” value is around 6 fold. For the same molecule, the “fold weaker affinity than to the human receptor” value in assay [11] was around 6 fold.

B11: H1L2 (antibody, V domains shown)
VH: B8 VH
VL: B8 VL with D1S, S67Y, Y87F
notes: also called Design H1 / Design L2
For the molecule B11, the half-inhibitory concentration (IC50) in assay [8] was 0.00134 µM; in assay [9] it was 0.0009 µM.
